Results published in paper PMC4465127 (2015).

Target: T1, LIN-3 EGF domain EGF (Caenorhabditis elegans, UniProt Q03345)
T1 chain: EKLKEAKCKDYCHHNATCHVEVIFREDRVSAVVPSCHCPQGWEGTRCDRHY

B1: sLET-23 ECD (protein)
chain: FGNSNAQLWKRCVSPQDCLCSGTTNGISRYGTGNILEDLETMYRGCRRVYGNLEITWIEANEIKKWRESTNSTVDPKNEDSPLKSINFFDNLEEIRGSLIIYRANIQKISFPRLRVIYGDEVFHDNALYIHKNDKVHEVVMRELRVIRNGSVTIQDNPKMCYIGDKIDWKELLYDPDVQKVETTNSHQHCYQNGKSMAKCHESCNDKCWGSGDNDCQRVYRSVCPKSCSQCFYSNSTSSYECCDSACLGGCTGHGPKNCIACSKYELDGICIETCPSRKIFNHKTGRLVFNPDGRYQNGNHCVKECPPELLIENDVCVRHCSDGHHYDATKDVRECEKCRSSSCPKICTVDGHLTNETLKNLEGCEQIDGHLIIEHAFTYEQLKVLETVKIVSEYITIVQQNFYDLKFLKNLQIIEGRKLHNVRWALAIYQCDDLEELSLNSLKLIKTGAVLIMKNHRLCYVSKIDWSSIITSKGKDNKPSLAIAENRDSKLCETEQRVCDKNCNKRGCWGKEPEDCLECKTWKSVGTCVEKCDTKGFLRNQTSMKCERCSPECETCNGLGELDCLTCRHKTLYNSDFGNRMECVHDCPVSHFPTQKNVCEKCHPTCYDNGCTGPDSNLGYGGCKQCKYAVKYENDTIFCLQSSGMNNVCVENDLPNYYISTYDTEGVIETHCEKCSISCKTCSSAGRNVVQNKCVCKHVEYQPNPSERICMDQCPVNSFMVPDTNNTVCKKCHHECDQNYHCANGQSTGCQKCKNFTVFKGDIAQCVSECPKNLPFSNPANGECLDYDIASRQRKTR
Work on B1 yielded a Kd of about 3 µM.
